Here are results for eight proteins from article PMC5685557 (Structure (London, England : 1993), 2017).

Series [1] deals with the molecule itself. Description: SEC. Background: Size exclusion chromatography separates by hydrodynamic size, large species first.
The series “SEC-SAXS” deals with the molecule itself. Description: SEC-SAXS.
The series “cross-linking” deals with the molecule itself. Nature of the series: cross-linking.
The series “non-reducing SDS-PAGE” concerns the molecule itself. Description: non-reducing SDS-PAGE.
Series [2] deals with the molecule itself. Description: SEC. This is another data set of the same source.

Residue numbers refer to the chain shown, from its start. Names may count otherwise. “And” between values parts separate entries of the source, which are not always exact repeats. Equal entries are not always repeated.

B1: myocilin construct CC_(33-111) (domain or fragment, human, UniProt Q99972 33-111, looked up)
chain: RTAQLRKANDQSGRCQYTFSVASPNESSCPEQSQAMSVIHNLQRDSSTQRLDLEATKARLSSLESLLHQLTLDQAARPQ
Regarding B1, the stoichiometry N (commonly a count of units in the complex or per binding partner) in the series “SEC [1]” was 4; in the series “SEC-SAXS”, 2.8; in the series “cross-linking” it was 2.

B2: myocilin N-terminal domain construct NTD_(33-226), wild type (domain or fragment, human, UniProt Q99972 33-226, looked up)
chain: RTAQLRKANDQSGRCQYTFSVASPNESSCPEQSQAMSVIHNLQRDSSTQRLDLEATKARLSSLESLLHQLTLDQAARPQETQEGLQRELGTLRRERDQLETQTRELETAYSNLLRDKSVLEEEKKRLRQENENLARRLESSSQEVARLRRGQCPQTRDTARAVPPGSREVSTWNLDTLAFQELKSELTEVPASR
For B2, the “stoichiometry N” value was around 8 in “non-reducing SDS-PAGE”; 2 and 4 in “cross-linking”.

B3: NTD_(33-226) (C47S/C61S/C185S) (domain or fragment, human, UniProt Q99972 33-226, looked up)
chain: B2 chain with C15S, C29S, C153S
With B3, the binding result in the series “SEC [2]” is listed as “binds”.

B4: myocilin coiled-coil construct CC_(60-185) (domain or fragment, human, UniProt Q99972 60-185, looked up)
chain: SCPEQSQAMSVIHNLQRDSSTQRLDLEATKARLSSLESLLHQLTLDQAARPQETQEGLQRELGTLRRERDQLETQTRELETAYSNLLRDKSVLEEEKKRLRQENENLARRLESSSQEVARLRRGQC
B4: the “stoichiometry N” value in the series “SEC-SAXS” came out at 4.9.

B5: myocilin coiled-coil construct CC_(112-185) (domain or fragment, human, UniProt Q99972 112-185, looked up)
chain: ETQEGLQRELGTLRRERDQLETQTRELETAYSNLLRDKSVLEEEKKRLRQENENLARRLESSSQEVARLRRGQC
For B5, the “stoichiometry N” value in the series “SEC [1]” came to 2; in the series “SEC-SAXS” it was 2.4.

B6: myocilin coiled-coil construct CC_(69-184) (domain or fragment, human, UniProt Q99972 69-184, looked up)
chain: SVIHNLQRDSSTQRLDLEATKARLSSLESLLHQLTLDQAARPQETQEGLQRELGTLRRERDQLETQTRELETAYSNLLRDKSVLEEEKKRLRQENENLARRLESSSQEVARLRRGQ
As for B6, the “stoichiometry N” value in “SEC [1]” turned out to be 4.

B7: myocilin coiled-coil construct CC_(69-185) (domain or fragment, human, UniProt Q99972 69-185, looked up)
chain: SVIHNLQRDSSTQRLDLEATKARLSSLESLLHQLTLDQAARPQETQEGLQRELGTLRRERDQLETQTRELETAYSNLLRDKSVLEEEKKRLRQENENLARRLESSSQEVARLRRGQC
With B7, the “stoichiometry N” value in the series “non-reducing SDS-PAGE” amounted to 2; in “SEC-SAXS” it was 3.6; in the series “cross-linking”, 4.

B8: mouse myocilin leucine zipper construct mLZ_(93-171) (domain or fragment, UniProt O70624 93-171, looked up)
chain: VTGTQEAQEGLQGQLGALRRERDQLETQTRDLEAAYNNLLRDKSALEEEKRQLEQENEDLARRLESSSEEVTRLRRGQC
In the case of B8, in the series “SEC-SAXS”, the “stoichiometry N” value was determined as 2.2.
